Experimental data: patent US20260109761A1 (IP2IPO INNOVATIONS, published 2026)

What was measured:
huZIP12-ECD-GST = target: T1, huZIP12-ECD-GST (human, UniProt Q504Y0 24-202); experiment: SPR single cycle kinetics (Biacore): mAb captured on protein A, huZIP12-ECD-GST injected at 2.34-600 nM, extended dissociation
T1 construct: also called hZIP12-ECD-GST; human ZIP12-ECD-GST; not shown: glutathione S-transferase (GST) tag
Procedure: Single Cycle Kinetics (SCK) involves first capturing the mAb onto the protein A sensor surface and then sequentially injecting a series of concentrations of huZIP12-ECD-GST over the surface starting at the lowest concentration and ending with the highest concentration. The final concentration is followed by a dissociation phase where buffer only is passed across the surface followed by regeneration, where the remaining bound huZIP12-ECD-GST is removed from the surface by injection of a 10 mM Glycine pH 1.5 and 50 mM NaOH solution. The SCK is repeated for each monoclonal antibody providing duplicate data and the kinetics of each interaction is evaluated by the Biacore software.
A selection of the higher affinity antibody variants were re-tested at a lower concentration series with an extended dissociation time with the objective of obtaining a better assessment of the binding kinetics. Referring now to FIG. 7, there are shown the data for the monoclonal antibodies that were re-tested to optimise the binding kinetic data. Once again, three antibody variants, H3_W99H_L1, H3_W99HL2 and H3_W99H_VL-par, all appear to have a higher affinity than the parent antibody. The on-rate (ka), off-rate (kd) and overall affinity measurement (KD) are all improved compared to the 51B12 VH_VL_par parent antibody.

[1] = target: T2, LIN15 37-51 SEQ ID No: 226; experiment: peptide-array ELISA on mimics of the human ZIP12 ECD (peroxidase conjugate, ABTS, CCD read-out); antibody concentration of this value not given
T2 peptide: RGSSGQPADLLQVLS
Procedure: (§1) The binding of antibody to each of the synthesized peptides was tested in a peptide-based ELISA. The peptide arrays were incubated with primary antibody solution (overnight at 4° C.). After washing, the peptide arrays were incubated with a 1/1000 dilution of an appropriate antibody peroxidase conjugate for one hour at 25° C. After washing, the peroxidase substrate 2,2′-azino-di-3-ethylbenzthiazoline sulfonate (ABTS) and […] of 3 percent H2O2 were added. After one hour, the colour development was measured. The colour development was quantified with a charge coupled device—camera and an image processing system.

[2] = target: T3, LOOP15 35-49 SEQ ID No: 238; experiment: as above
T3 construct: constrained mimic
T3 peptide: CRSRGSSGQPADLLC
Procedure: as §1

[3] = target: T4, HEL19 31-49 SEQ ID No: 241; experiment: as above
T4 construct: alpha-helical mimic
T4 peptide: CAQDCRSRGSSGQPADLLQ
Procedure: as §1

[4] = target: T5, HEL19 38-56 SEQ ID No: 245; experiment: as above
T5 construct: alpha-helical mimic
T5 peptide: CGSSCQPADLLQVLSAGDH
Procedure: as §1

[5] = target: T6, LIN15 34-48 SEQ ID No: 223; experiment: as above
T6 peptide: SRSRGSSGQPADLLQ
Procedure: as §1

[6] = target: T7, LOOP15 37-51 SEQ ID No: 240; experiment: as above
T7 construct: constrained mimic
T7 peptide: CRGSSGQPADLLQVC
Procedure: as §1

T1 sequence (Q504Y0 24-202): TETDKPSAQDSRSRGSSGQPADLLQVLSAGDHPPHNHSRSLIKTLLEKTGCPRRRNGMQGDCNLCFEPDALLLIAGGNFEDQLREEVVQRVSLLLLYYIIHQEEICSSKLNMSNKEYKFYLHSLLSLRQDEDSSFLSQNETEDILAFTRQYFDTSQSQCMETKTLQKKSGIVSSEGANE

Kd (huZIP12-ECD-GST): 0.314 nM | koff (huZIP12-ECD-GST): 3.14e-05 s⁻¹ | kon (huZIP12-ECD-GST): 99900 M⁻¹ s⁻¹ | value [1]: 2570 | value [2]: 901 | value [3]: 1700 | value [4]: 828 | value [5]: 1650 | value [6]: 1830
B1: H3_W99H_L1 (antibody, V domains shown)
VH: QVQLVESGGGVVQPGRSLRLSCAASGFTFSDYGMHWVRQAPGKGLEWVAYISSGGTTIYYADTVKGRFTISRDNSKNTLYLQMNSLRAEDTAVYYCARHTNLYAMDYWGQGTTVTVSS
VL: DIVLTQSPDSLAVSLGERATINCRASKSVSTQGYSYMHWYQQKPGQPPKFLIYLASNLESGVPDRFSGSGSGTDFTLTISSLQAEDVAVYYCQHSREVPYTFGGGTKVEIKR
notes: Fc null human IgG1 / human kappa
